From patent US20190330277A1 (PIRBRIGHT INSTITUTE, published 2019)

What was measured:
Experiment in all cases: biolayer interferometry (Octet), variant on Ni-NTA tip, Fab in solution
[1] = biological target: bRSV ATue51908 sc9-10 DS-Cav1 A149C-Y458C (bovine respiratory syncytial virus, …)
bRSV ATue51908 DSCav1 = bRSV ATue51908 DSCav1 (bovine respiratory syncytial virus, …, UniProt P22167 26-109)
bRSV ATue51908 postF = bRSV ATue51908 postF (bovine respiratory syncytial virus, …, UniProt P22167 26-109; P22167 147-513)
[2] = biological target: bRSV 391-2 sc9-10 DS-Cav1 Q98C-Q361C (bovine respiratory syncytial virus, …)
bRSV 391-2 postF = bRSV 391-2 postF (bovine respiratory syncytial virus, …, UniProt P22167 26-109; P22167 147-513)
bRSV RB94 postF = bRSV RB94 postF (bovine respiratory syncytial virus, …, UniProt P23728 26-109; P23728 147-513)
[3] = biological target: bRSV 391-2 sc9 DS-Cav1 Q98C-Q361C (bovine respiratory syncytial virus, …)
bRSV 391-2 DSCav1 = bRSV 391-2 DSCav1 (bovine respiratory syncytial virus, …, UniProt P22167 26-109)

B1: D25 Fab (Fab, V domains shown)
VH: QVQLVQSGAEVKKPGSSVMVSCQASGGPLRNYIINWLRQAPGQGPEWMGGIIPVLGTVHYAPKFQGRVTITADESTDTAYIHLISLRSEDTAMYYCATETALVVSTTYLPHYFDNWGQGTLVTVSS
VL: DIQMTQSPSSLSAAVGDRVTITCQASQDIVNYLNWYQQKPGKAPKLLIYVASNLETGVPSRFSGSGSGTDFSLTISSLQPEDVATYYCQQYDNLPLTFGGGTKVEIK
notes: also called mAb D25
Kd [1]: 420 nM
Kd (bRSV ATue51908 DSCav1): 10.8 nM

B2: AM14 Fab (Fab, V domains shown)
VH: EVQLVESGGGVVQPGRSLRLSCAASGFSFSHYAMHWVRQAPGKGLEWVAVISYDGENTYYADSVKGRFSISRDNSKNTVSLQMNSLRPEDTALYYCARDRIVDDYYYYGMDVWGQGATVTVSS
VL: DIQMTQSPSSLSASVGDRVTITCQASQDIKKYLNWYHQKPGKVPELLMHDASNLETGVPSRFSGRGSGTDFTLTISSLQPEDIGTYYCQQYDNLPPLTFGGGTKVEIKR
notes: also called mAb AM14
Kd (bRSV ATue51908 postF): > 1000 nM
Kd [2]: 12.8 nM
Kd (bRSV 391-2 postF): > 1000 nM
Kd (bRSV RB94 postF): > 1000 nM
Kd [1]: 12.8 nM
Kd [3]: 8.6 nM
Kd (bRSV ATue51908 DSCav1): 4.8 nM
Kd (bRSV 391-2 DSCav1): 1.8 nM

B3: MPE8 Fab (Fab, V domains shown)
VH: EVQLVESGGGLVKPGGSLRLSCAASGFTFSSYSMNWVRQAPGKGLEWVSSISASSSYSDYADSAKGRFTISRDNAKTSLFLQMNSLRAEDTAIYFCARARATGYSSITPYFDIWGQGTLVTVSS
VL: QSVVTQTPSVSGAPGQRVTISCTGSSSNIGAGYDVHWYQQLPGTAPKLLIYDNNNRPSGVPDRFSASKSGTSASLAITGLQAEDEADYYCQSYDRNLSGVFGTGTKVTVL
notes: also called mAb MPE8
Kd (bRSV 391-2 postF): > 1000 nM
Kd (bRSV RB94 postF): > 1000 nM
